Experimental data reported in publication PMC11809610.

B1: CD95 (full-length protein, amino acids 1 to 335) fused C-terminally to mEGFP or mCherry, P25445 26-335 (receptor)
chain: QVTDINSKGLELRKTVTTVETQNLEGLHHDGQFCHKPCPPGERKARDCTVNGDEPDCVPCQEGKEYTDKAHFSSKCRRCRLCDEGHGLEVEINCTRTQNTKCRCKPNFFCNSTVCEHCDPCTKCEHGIIKECTLTSNTKCKEEGSRSNLGWLCLLLLPIPLIVWVKRKEVQKTCRKHRKENQGSHESPTLNPETVAINLSDVDLSKYITTIAGVMTLSQVKGFVRKNGVNEAKIDEIKNDNVQDTAEQKVQLLRNWHQLHGKKEAYDTLIKDLKKANLCTLAEKIQTIILKDITSDSENSNFRNEIQSLV

How the values were obtained:
[1] = molecular target: CD95 (full-length protein, amino acids 1 to 335) fused C-terminally to mEGFP or mCherry (human (from the printed accession)) (UniProt P25445)
[2] = molecular target: T1, CD95 (full-length protein, amino acids 1 to 335) fused C-terminally to mEGFP or mCherry (human (from the printed accession)), P25445; experiment: FRET or BRET; CELFIS (FRET-FLIM) in live HeLa CD95^KO cells with bicistronic mCherry/mEGFP plasmids; after addition of CD95L (200 ng/ml with enhancer); repeated measurements up to 6 hours; 37°C; details: remark: other sources report otherwise
T1 chain: B1 chain

[3] = molecular target: T1, CD95 (full-length protein, amino acids …); experiment: FRET or BRET; CELFIS (FRET-FLIM, donor lifetime, x_FRET for each cell) in live HeLa CD95^KO cells with bicistronic mCherry/mEGFP plasmids; no ligand; evaluated from 30 up to 1000 receptors/μm^2; 37°C; details: remark: other sources report otherwise

Molecule | percentage of apoptotic cells (time-lapse microscopy, HeLa cells expressing CD95-mEGFP), CD95L 2 to 200 ng/ml (% apoptotic cells) [1] | oligomer fraction with CD95L [2] [%] | oligomer fraction with CD95L, cells that did not show apoptosis, after 4 hours [2] [%] | oligomer fraction with CD95L, cells that underwent apoptosis [2] [%] | oligomer fraction with CD95L, just before apoptosis [2] [%] | oligomerization rate with CD95L, cells that died (% oligomers/hour) [2] | oligomerization rate with CD95L, cells that stayed alive (% oligomers/hour) [2] | x FRET with CD95L [2] [%] | dimer fraction [3] [%] | monomer fraction [3] [%]
FasL, soluble (human) (recombinant) (from UniProt P48023 130-281) (ligand) | 99 | – | – | – | – | – | – | – | – | –
B1 | – | < 21 | 12 | 18 | 15 | 6 | 2.3 | 12 | < 4 | 96
